According to US8343490B2, “Monoclonal antibody SC104 and derivative thereof specifically binding to a sialyltetraosyl carbohydrate as a potential anti-tumor therapeutic agent” (Cephalon Australia Pty Ltd, priority 2004, dated 2013):

Tests used:
[1] = system: frozen normal tissue sections; experiment: Immunohistochemistry staining of frozen normal tissue sections; assay type: binding, Human
Description: • Immunohistochemistry staining of normal and tumour tissues. Human tissues were obtained from an Inveresk approved supplier. Each tissue used was snap frozen in liquid nitrogen and stored at approximately −70° C. (±10° C.). Cryostat sections were cut and placed onto super frost plus slides. All tissue samples were treated with an antigen marker appropriate for each tissue in order to confirm the preservation of antigens in that tissue. The markers used were keratin for epithelial bearing tissues, CD45 for all lymphoid tissues, and desmin for all cardiac and skeletal muscle. Each tissue was examined from three unrelated donors. The method of staining employed was an indirect, 2 or 3-stage method, using secondary and tertiary antibodies together with an avidin-biotin-peroxidase complex. Endogenous peroxidase activity was blocked using hydrogen peroxide. Endogenous biotin was blocked by treating all tissue sections with a sequence of avidin-biotin. When a tertiary antibody was used, all tissue sections were treated with normal swine serum, which inhibits the binding of tertiary antibodies to the tissues. Validation of the immunohistochemical staining method was determined by staining on positive control tissues, the absence on negative controls and the effect of fixation on staining of control tissues. SC104 was tested against 6 donors of colon tumour and one of heart at concentrations of […]. Tissues were fixed in either acetone or neutral buffered formalin. Two samples of colon tumour stained well enough for use as a positive control and there was no staining in heart. […] The lowest concentration of SC104 giving the maximum staining intensity was 1 μg/ml and this concentration was used for subsequent work. Results

caspase 6 in C170 cells = experiment: Caspase 6 activation (Western blot); assay type: cell-based; settings: 6 hrs; SC104 at 10, more intensely at 100 μg/ml; FIG. 18
Description: Caspase 6 activation by SC104 mab. 2×10^5 colorectal C170 cells were exposed to 1-100 μg/ml of SC104 for 6 hrs and cell lysates generated. The lysates were subsequently run a 12% SDS-PAGE, Western blotted and probed with a caspase 6 specific antibody (Cleaved caspase 6 antibody, Cell Signalling Technology (NEB), catalogue number 9761). Cells exposed to SC101 were included as a negative control.

C170 cells [2] = experiment: Inhibition of SC104 cell death by z-FMK-vad caspase inhibitor; assay type: cell-based; settings: 3 μg/ml SC104 with 3 μM z-FMK-vad inhibitor, overnight; annexin V FITC/PI
Description: SC104 inhibition of cell death using the z-FMK-vad caspase inhibitor. 2×10^5 C170 cells were subjected to 3 μg/ml of SC104 and half were also incubated with 3 μM z-FMK-vad inhibitor (Promega, catalogue number G7232) and incubated overnight. The following day cell viability was assayed using annexin V FITC and propidium iodide.

C170 cells [3] = experiment: FACS antibody saturation on fresh and fixed cells; assay type: binding
Description: FACS on fresh and fixed cells. C170 cells (10^5) either fresh or fixed with 0.5% glutaraldehyde for 1 hr were resuspended in 100 μl of SC104 mab (0-100 μg/ml) and incubated on ice for 1 hr. After washing the samples 3 times in RPMI/10% FCS cells were incubated with FITC labelled rabbit anti-mouse (1/80: Dako Ltd, Bucks, UK) antibody and incubated on ice for 30 minutes prior to analysing by FACS as described above.

SC104 / C14 antigen = experiment: ELISA for homophilic binding; settings: FIG. 23
Description: ELISA for homophilic binding. Flat flexi 96 well ELISA plates were coated with anti-mouse IgG Fc specific antibody or were coated with 3 μg/ml (100 μl/well) of C14 antigen in PBS and dried down overnight. Plates were washed 3 times with PBS prior to blocking with PBS/1% BSA for 1 hr at room temperature. SC104 antibody (0-100 μg/ml) was added on ice for 1 hr. After washing the plate 3 times in PBS/0.05% tween-20, biotinylated SC104 was added and incubated on ice for 30 minutes. Following a further 3 washes in PBS 0.05% tween-20 anti-mouse SA-HRP (1/1000; Dako, High Wycombe, UK) or goat anti-mouse Fc (1/1000: Dako, High Wycombe, UK) was added as appropriate and left on ice for 30 min. Plates were washed 5 times in PBS/0.05% tween-20 before adding 100 μl/well of TMB substrate and reading at 570 nm.

C170 xenografts = experiment: C170 xenograft therapeutic model; assay type: in vivo, nude mice; settings: administered therapeutically, after C170 xenograft implantation; FIG. 27
Description: Therapeutic model. The colorectal tumour cell line, C170 was maintained in serial passage in nude mice. For therapy the mice were sacrificed and the tumours excised. The tumour was finely minced and […] pieces were implanted, under anaesthetic, subcutaneously into 30 male mice which had been randomly allocated to 4 experimental groups.
Mice were explanted with 3 mm^3 pieces of C170 xenografts. […] On the same days mice were also injected intraperitonealy with 0.2 mg of SC104 mab. Control mice received either SC104 alone or control mouse IgG antibody with 5FU/leucovorin. Tumour size was measured by callipers and tumour cross sectional area calculated on days 12, 16, 19 and 23.

[4] = Normal Tissues: Large intestine
[5] = Normal Tissues: Parotid salivary gland
[6] = Normal Tissues: Small intestine
[7] = Normal Tissues: Urinary Bladder

B1: SC104: mouse IgG1 monoclonal antibody specific for a sialyltetraosyl carbohydrate, raised by immunisation with colorectal cancer cell lines (antibody, V domains shown)
VH: DVQLQESGPDLVKPSQSLSLTCTVTGYSITSGYSWHWVRQFPGNKMEWMGHIHFSGRPTYNPSLSSRISITRDTSKNQFLLQLKFVTTEDTSTYFCARKGKGSDDGLNYWGQGISVTVSS
VL: ENVLTQSPVIMSASPGEKVTMTCSASSSLSYIHWYQQKSRTSPKLWIYDTSNLASGVPGRFSGSGSGNSYSLTISSMEAEDVATYYCFQGSEYPLTFGGGTKLEMT
[1]; Normal Tissues: Brain
  Comments on staining: Small number of scattered glial cells
  Immunoreactivity with frozen tissue sections (binding): 1/2
[1]; Normal Tissues: Breast
  Comments on staining: Epithelial cells scattered moderate
  Immunoreactivity with frozen tissue sections (binding): 2/3
[1]; Normal Tissues: Fallopian tube
  Comments on staining: Epithelial cells scattered moderate
  Immunoreactivity with frozen tissue sections (binding): 2/3
[1]; Normal Tissues: Heart
  Immunoreactivity with frozen tissue sections (binding): 0
[1]; Normal Tissues: Kidney
  Immunoreactivity with frozen tissue sections (binding): 0
[1]; [4]
  Comments on staining: Epithelial cells, mucous, diffuse
  Immunoreactivity with frozen tissue sections (binding): 3/3
[1]; Normal Tissues: Lung
  Comments on staining: Alveolar lining cells one donor
  Immunoreactivity with frozen tissue sections (binding): 2/3
[1]; Normal Tissues: Ovary
  Comments on staining: Follicular cells scattered and mild
  Immunoreactivity with frozen tissue sections (binding): 3/3
[1]; [5]
  Comments on staining: Moderate
  Immunoreactivity with frozen tissue sections (binding): 3/3
[1]; Normal Tissues: Placenta
  Immunoreactivity with frozen tissue sections (binding): 0
[1]; Normal Tissues: Prostate
  Comments on staining: Epithelial cells scatted and moderate
  Immunoreactivity with frozen tissue sections (binding): 3/3
[1]; Normal Tissues: Skin
  Comments on staining: Diffuse minimal staining
  Immunoreactivity with frozen tissue sections (binding): 2/3
[1]; [6]
  Comments on staining: Mucus superficial, diffuse minimal
  Immunoreactivity with frozen tissue sections (binding): 3/3
[1]; Normal Tissues: Spleen
  Immunoreactivity with frozen tissue sections (binding): 0
[1]; Normal Tissues: Stomach
  Comments on staining: Mucus superficial, diffuse mild
  Immunoreactivity with frozen tissue sections (binding): 2/3
[1]; Normal Tissues: Thymus
  Comments on staining: Epithelial cells, Hassall's corpuscle,
  Immunoreactivity with frozen tissue sections (binding): 3/3
[1]; Normal Tissues: Tonsil
  Comments on staining: Keratinised epithelium, membrane,
  Immunoreactivity with frozen tissue sections (binding): 3/3
[1]; [7]
  Comments on staining: Epithelial cells transitional
  Immunoreactivity with frozen tissue sections (binding): 2/2
[1]; Normal Tissues: Uterine cervix
  Comments on staining: Epithelial cells, membrane, diffuse
  Immunoreactivity with frozen tissue sections (binding): 3/3
Caspase 6 in C170 cells
  caspase 6 activation: activation of caspase 6
C170 cells [2]
  increase in viable cells in the presence of the inhibitor: 23%
C170 cells [3]
  number of SC104 haptens at the surface of C170 tumour cells: approximately 4×10^5 sites per cell
C170 cells [3]; SC104 0-100 μg/ml, FIG. 22
  antigen saturation on fresh and fixed cells: not saturated even at SC104 concentration of 100 μg/ml
SC104 / C14 antigen; C14 antigen coated plates
  binding to plates coated with purified glycoprotein expressing SC104 haptens: bound stoichiometrically until 10 μg/ml and then bound exponentially beyond this concentration
SC104 / C14 antigen; plate coated with unlabelled SC104, SC104 biotin detected
  homophilic binding in the absence of antigen: did not bind to itself
C170 xenografts
  inhibition of tumour growth: neither 5FU nor SC104 alone significantly inhibited growth
